In the test the target is yeast dynein_(MOTOR)^MT-B (microtubule-bound mutant of the motor domain) (budding yeast | T. thermophilus) (UniProt P34945). Description: mass photometry.

The record followed here is doi:10.1101/2022.11.08.515461 (bioRxiv, 2022).

Chain of yeast dynein_(MOTOR)^MT-B (microtubule-bound mutant of the motor domain) (budding yeast | T. thermophilus) (P34945 whole entry, change not shown, the tested form may be a part): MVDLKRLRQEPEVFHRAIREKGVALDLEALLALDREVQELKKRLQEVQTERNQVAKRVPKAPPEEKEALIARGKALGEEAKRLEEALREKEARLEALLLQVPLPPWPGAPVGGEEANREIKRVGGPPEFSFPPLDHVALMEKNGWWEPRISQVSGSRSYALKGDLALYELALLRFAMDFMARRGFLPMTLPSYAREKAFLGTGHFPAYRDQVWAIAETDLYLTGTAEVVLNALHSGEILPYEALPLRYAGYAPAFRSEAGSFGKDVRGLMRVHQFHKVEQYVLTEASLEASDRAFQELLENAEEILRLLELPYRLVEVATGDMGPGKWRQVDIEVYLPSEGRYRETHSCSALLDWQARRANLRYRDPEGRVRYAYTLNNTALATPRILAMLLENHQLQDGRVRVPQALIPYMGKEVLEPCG

B1: Pac1-SNAP (natural protein)
chain: MTNWQQQLPLTDTQKNELDKSVLRYLNWNYKQTVRHEHAQDYESVRHAIVTLSGFLLQESVDRQEFISNNDTSNESMVDIDELLLPKKWNSIVRLQKKIIELEQNTETLVSQIKDLNTQVSELAQFKPTTSNGTSAHNVLKWIPRNLPSCLINVESSVTSVKLHPNLPIVFVATDHGKLYAFDLFNYTIPLASLQSHTKAITSMDVLFTNYTNSSKKNYLVIVTASKDLQIHVFKWVSEECKFQQIRSLLGHEHIVSAVKIWQKNNDVHIASCSRDQTVKIWDFHNGWSLKTFQPHSQWVRSIDVLGDYIISGSHDTTLRLTHWPSGNGLSVGTGHEFPIEKVKFIHFIEDSPEIRFRTPSTDRYKNWGMQYCVSASRDRTIKIWEIPLPTLMAHRAPIPNPTDSNFRCVLTLKGHLSWVRDISIRGQYLFSCADDKSVRCWDLNTGQCLHVWEKLHTGFVNCLDLDVDFDSNVTPRQMMVTGGLDCKSNVFMR
modifications: JF646-SNAP-tag ligand on the SNAP tag (fluorescent labelling)
B1 came in with a stoichiometry N (Pac1 dimer per dynein (MOTOR) monomer) of 1.
